Results reported in US20150344580A1.
One block for each substance: values may come before it.

Legend:
mouse CCR7 (mouse) = mouse CCR7 (mouse) (UniProt P47774); experiment: flow cytometry, mouse CCR7 cells (summary table)
[1] = molecular target: human chemokine receptor CCR7 (UniProt P32248); experiment: flow cytometry, human CCR7 cells (summary table)
[2] = molecular target: human chemokine receptor CCR7 (UniProt P32248); experiment: cell-based or functional assay
human CCR7-CHO cells = human CCR7-CHO cells (UniProt P32248); experiment: FACS binding to CCR7-CHO cells
CCR7 (CCL-AAT) = CCR7 (CCL-AAT) (UniProt P32248); experiment: cell binding; CLL-AAT cells
CCR7 (JVM-13) = CCR7 (JVM-13) (UniProt P32248); experiment: cell binding; JVM-13 cells
Sequence of CCR7 (JVM-13) (P32248 25-378): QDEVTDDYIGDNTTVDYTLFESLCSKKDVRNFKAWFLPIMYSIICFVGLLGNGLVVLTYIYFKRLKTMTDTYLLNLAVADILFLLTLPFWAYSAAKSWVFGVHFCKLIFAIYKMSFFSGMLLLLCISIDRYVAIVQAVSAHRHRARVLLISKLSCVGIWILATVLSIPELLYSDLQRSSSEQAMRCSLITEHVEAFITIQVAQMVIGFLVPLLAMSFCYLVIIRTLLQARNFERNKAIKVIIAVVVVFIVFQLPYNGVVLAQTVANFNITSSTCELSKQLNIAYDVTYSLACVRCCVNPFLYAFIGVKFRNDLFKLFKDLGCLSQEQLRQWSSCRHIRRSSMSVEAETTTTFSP

Sequence of human chemokine receptor CCR7 (P32248 25-378 limits assumed): as the sequence (P32248 25-378) above
Sequence of human CCR7-CHO cells (P32248 25-378): as above
Sequence of mouse CCR7 (mouse) (P47774 25-378): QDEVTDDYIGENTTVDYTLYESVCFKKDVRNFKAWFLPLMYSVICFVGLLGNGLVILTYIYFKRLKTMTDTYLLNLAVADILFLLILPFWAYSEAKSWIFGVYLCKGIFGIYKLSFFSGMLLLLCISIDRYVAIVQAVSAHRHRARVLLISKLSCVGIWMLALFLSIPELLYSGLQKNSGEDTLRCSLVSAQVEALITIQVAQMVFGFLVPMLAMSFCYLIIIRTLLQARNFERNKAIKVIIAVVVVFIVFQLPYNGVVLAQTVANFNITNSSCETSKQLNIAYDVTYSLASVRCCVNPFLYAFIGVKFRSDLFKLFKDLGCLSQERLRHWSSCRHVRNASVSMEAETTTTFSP
Sequence of CCR7 (CCL-AAT) (P32248 25-378): as the sequence (P32248 25-378) above

EC50 (mouse CCR7 (mouse)): 73.5 nM
Substance: Rat IgG2A anti-mouse CCR7, clone 4B12 (R&D Systems MAB3477) (antibody)

EC50 [1]: 6.9 nM | IC50 of inhibition of Ca-flux induced by 15 nM CCL19, Chem-1 CCR7 human cells [2]: 10 nM | inhibition of chemotaxis of CLL-AAT cells toward 30 nM CCL19, 500 nM IgG [2]: 60%
Substance: Mouse monoclonal IgG2A anti-human CCR7, clone 150503 (R&D Systems MAB197) (antibody)

EC50 (human CCR7-CHO cells): 3.2 nM
Substance: IgG 3D12 eBioscience

EC50 (human CCR7-CHO cells): 5.9 nM
Substance: IgG 150503 R&D Systems

EC50 [1]: 3.4 nM
Substance: IgG 3D12 (eBioscience), anti-human CCR7 control (antibody)

Kd (CCR7 (CCL-AAT)): 27 nM | Kd (CCR7 (JVM-13)): 20 nM
Substance: MAB197
